From PMC10134200 (Cell Insight, 2023)

Target: GST-CaM (glutathione S-transferase-tagged calmodulin) (UniProt P0DP23 1-149)
Test: pull-down

binding result: binds
B1: His-P3CP (His-tagged TRPP3 C-terminal peptide I560-K660) (domain or fragment)
chain: INDTYSEVKEELAGQKDELQLSDLLKQGYNKTLLRLRLRKERVSDVQKVLQGGEQEIQFEDFTNTLRELGHAEHEITELTATFTKFDRDGNRILDEKEQEK
